Reference: the RNAGym collection of RNA variant scans (doi:10.1073/pnas.2313332121)
This sample holds only a part of the variants without activity.

B1: TPR 5TU (parent)
chain: GGAUCUUCUCGAUCUAACAAAAAAGACAAAUCUGCCACAAAGCUUGAGAGCAUCUUCGGAUGCAGAGGCGGCAGCCUUCGGUGGCGCGAUAGCGCCAACGUUCUCAACUAUGACACGCAAAACGCGUGCUCCGUUGAAUGGAGUUUAUCAUG

Variants of: B1
Assay: polymerase ribozyme fitness, log enrichment relative to wild type (log ratio); higher = more active; in vitro selection for triplet polymerase activity
In short: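 For each subunit of a heterodimeric triplet polymerase ribozyme, a mutant library was built by PCR and transcribed, then taken through a single in vitro selection round in triplicate. Selection involved annealing to a biotinylated primer, the partner subunit and triplets, incubation frozen at −7 °C, gel excision of extended constructs, capture on streptavidin beads and RT-PCR. Genotypes were retained after Illumina sequencing of inputs and outputs only with ≥10 input reads and ≥1 read in each output. Fitness is defined as the logarithm of a genotype's enrichment relative to wild-type enrichment, using inverse-variance-weighted averages across replicates, with the logarithm taken to base 2.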

| Variant | polymerase ribozyme fitness (log ratio) |
| --- | --- |
| GGAUCUUCUCGAUCUAACAAAAAAGUCAAAUCUGCCACAAAGCUUGAGAGCAUCUUCGGCUGCAGAGGCGGCAGCCUUCCGUGGCGCGAUUGCGCCAACGUUCUCAACUAUGACACGCAACACGCGUGCUCCGUUGAAUGGAGUUUAUCAUG [A26U A60C G80C A91U A121C] | ≤ -4.2 |
| GGAUCUUCUCGAUCUAACAAAAAAGGCAAAUCUGCCACAAAGCUUGAGAGCAACUUCGGAUGCAGAGGCGGCAGCCUUCGGUGGCGCGAUAGCGCCAACGUUCUCAACUAUGACACGCAAAACGCGUGCUCCGUUGAAUGGAGUUUAUCAUG [A26G U53A] | -4.06 |
| GGAUCUUCUCGAUCUAACAAAAAAGUCAAAUCUGCCACAAAGCUUGAGAGCAUGUUCGGAUGCAGAGGCGGCAGCCUUCGGUGGCGGGAUAGCGCCAACGUUCUCGACUAUGACACGCAAAACGCGUGCGCCGUUGAAUGGAGUUUAUCAUG [A26U C54G C87G A106G U130G] | ≤ -4.2 |
| GGAUCUUCUCGAUCUAACAAAAAAGUCAAAUCUGCCACAAAGCUUGAGAGCAUCUUCGGAUGCAGAGGCGGCAGCCUUCGGUGGCGCGAUAGCGCCAACGUUCUCAACUAUGACAUGCAAAACGCGUGCUCCGUUGAAUGAAGUUUAUCAUG [A26U C116U G141A] | -1.75 |
| GGAUCUUCUCGAUCUAACAAAAAAGUCAAAUCUGCCACAAAGCUUGAGAGCAUCUUCGGAUGCAGAGGCGGCAGCCUUCGGUGGCGUGAUAGCGCCAACGUUCUCAACUAUGACACGCAAAACGCGUGCUCCGUUGAAUGUAGUUUAUCAUG [A26U C87U G141U] | -1.66 |
| GGAUCUUCUCGAUCUAACAAAAAAGUCAAAUCUGCCACAAAGCUUGAGAGAAUCUUCGGUUGCAGAGGCGGCAGCCUUCGGUGGCGCUAUAGCGUCAACGUUCUCAACUAUGACACGUAAAACGCGUGCUCCGUUGAAUGCAGUUUAUCAUG [A26U C51A A60U G88U C95U C118U G141C] | ≤ -4.2 |
| GGAUCUUCUCGAUCUAACAAAAAAGUCAAAUCUGCCACAAAGCUUGAGAGCAUCUUCGGAUGCAGAGGCGGCAGCAUUCGGUGGCCCGAUACCGACAACGUUCUCAACUAUGACACGCAAAACGCGUGCUCCGUUGAAUGGAGGUUAUCAUG [A26U C76A G86C G92C C95A U144G] | ≤ -4.2 |
| GGAUCUUCUCGAUCUAACAAAAAAGUCAAAUCUGCCACAAAGCUUGAGAGCAUCUUCGGAUGCAGAGGUGGCAGCCUUCGGUGGCGCGAUAGCGCCAACGUUCUCAACUAUGACACGCAAAACGCGUGCUCCGUUGAAUGGAGUUUAUCAUG [A26U C69U] | -1.87 |
| GGAUCUUCUCGAUCUAACAAAAAAGUCAAAUCUGCCACAAAGCUUGAGAGCAUCUUCGGAUGCAGAGGCGGCAGCCUUCGGUGGUGCGAUAGCGCUAACGUUCUCAACUAUGACACGCAAAACGCGUGCUCCGUUGAAUGGAUUUUAUCAUG [A26U C85U C96U G143U] | -3.94 |
| GGAUCUUCUCGAUCUAACAAAAAAGUCAAAUCUGCCACUAAGCUUGAGAGCAUCUUCGGAUGCAGAGGCGGCAGCCUUCGGUGGCGCGAUAGCUCCAACGUUCUCAACUAUGUCACGCGAAACGCGCGCUCCGUUGAAUGGAGUUUAUCAUC [A26U A39U G94U A113U A119G U127C G152C] | ≤ -4.2 |
| GGAUCUUCUCGAUCUAACAAAAAAGGCAAAUCUGCCACAAAGCUUGAGAGCAUCUUCGGAUGCAGAGGCGGCAGCCUUCGGUGGGGCCAUAGCGCCAACGUUCUCAACUAUGACACGCAAAACGUGUGCUCCGUUAAAUGGAGUUUAUCAUG [A26G C85G G88C C125U G136A] | ≤ -4.2 |
| GGAUCUUCUCGAUCUAACAAAAAAGUCAAAUCUGCCAAAAAGCUUGAGAGCAUCUUCGGAUGCAGAGGCGGCAGCCUUCGGUGGCGCGAUAGCGCCAACGUUCUCAACUAUGACACGCAAAACGCGUGCUCCGUUGAAUGGAGUUUAUCAUG [A26U C38A] | -2.37 |
| GGAUCUUCUCGAUCUAACAAAAAAGGCAAAUCUGUCUCAAAGCUUGAGAGCAUCUUCGGAUGCAGAGGCGGCAGCAUACGGUGGCGCGAUAGCGCCAACGUUCUCAACUAUGACACGCAAAACGCGUGCUCCGUUGAAUGGAGUUUAUCAUG [A26G C35U A37U C76A U78A] | ≤ -4.2 |
| GGAUCUUCUCGAUCUAACAAAAAAGUCAAAUCUGCCACAAAGCUUGAGAGCAUCUUCGGAUGCAGAGGCGGCAGCCUUCGGUGGCGCGAUAGCGCCAACGUUAUCAACUAUGACACGCAAAACGCGUGCUCCGUUGAAUGGAGUUUAUCAUG [A26U C103A] | ≤ -4.2 |
| GGAUCUUCUCGAUCUAACAAAAAAGUCAAAUCUUCCACAAAGCUUGAGAGCAUCUUCGGAUGCAGAGGCGGCAGCCUUCGGUGGCGCCAUAGCGCCAACGUUCUUAACUAUGACACGCAAAACGCGUGCACCGUUGAAUGGAGUUUAUCAUG [A26U G34U G88C C105U U130A] | ≤ -4.2 |
| GGAUCUUCUCGAUCUAACAAAAAAGGCAAAUCUGCCACAAAGCUUGAGAGCAUCUUCGGAUGCAGAGGCGGCAGCCUUCGGUGGCGGGAUAGCGCCAACGUUCUCAACUAUGACACGCAAAACGCGAGGUCCGUUGAAUGGAGUUUAUCAUG [A26G C87G U127A C129G] | ≤ -4.2 |
| GGAUCUUCUCGAUCUAACAAAAAAGUCAAAUCUGCCACAAAGCUUGAGAGCAUCUUCGGAUGCAGAGGCGGCAGCCUUCGGUGGCGCGAUAGCGCCAACGUUCUCAACUAUGACAUGCAAAACGCGUGCUCCGUUGAAUGGAGUUUAUCAUG [A26U C116U] | -1.09 |
| GGAUCUUCUCGAUCUAACAAAAAAGUCAAAUCUGCCACAAAGCUUGAGAGCAUCUUCGGAUGCAGAGGCGGCAGCCUUCGGUGGUGCGAUAGCGCCAACGUUCUCAACUAUGACACGCAAAACGCGUGCUCCGUUGAAUGGAGUUGAUCAUG [A26U C85U U146G] | -1.93 |
| GGAUCUUCUCGAUCUAACAAAAAAGGCAAAUAUGACACAAAGCUUGAGAGCAUCUUCGUAUGCAGAGGCGGCAGCCUUCGGUGGCGCGACAGGGCCAACGUUCUCAACUAUGACACGCAAAACGCGUGCUCCGUUGAAUGGAGUUGAUCAUG [A26G C32A C35A G59U U90C C93G U146G] | ≤ -4.2 |
